Measured values from patent US20030181408A1, “Genes essential for microbial proliferation and antisense thereto” (priority 1999, published 2003).
Values after ≈ are worked out from the molar mass of the structure shown. Where a SMILES comes first, the peptide text is derived from it. Bridges are numbered along the chain shown (N, C = ends). [ ]: non-standard residue; d: D form. The star is where a group is joined. Ileψ(thiazoline)Cys = CC[C@H](C)[C@H](N)C1=N[C@H](C(=O)*)CS1; dOrn = NCCC[C@@H](N)C(=O)O

Legend:
[1] = system: bacterial strain engineered for expression of an antisense against rplL and rplJ (50S ribosomal subunit proteins); assay: microbe, parasite or virus in culture; type: cell-based, E. coli; conditions: read-out: IC50 (+I)
Procedure: Antibiotics of various chemical classes and modes of action were purchased from Sigma Chemicals (St. Louis, Mo.). Stock solutions were prepared by dissolving each antibiotic in an appropriate aqueous solution based on information provided by the manufacturer. The final working solution of each antibiotic contained no more than 0.2% (w/v) of any organic solvent. To determine their potency against a bacterial strain engineered for expression of an antisense against a proliferation-required gene encoding 50S ribosomal protein, each antibiotic was serially diluted two or three fold in growth medium supplemented with the appropriate antibiotic for maintenance of the anti-sense construct. At least ten dilutions were prepared for each antibiotic. 25 μL aliquots of each dilution were transferred to discrete wells of a 384-well microplate (the assay plate) using a multi-channel pipette. Quadruplicate wells were used for each dilution of an antibiotic under each treatment condition (plus and minus inducer). Each assay plate contained twenty wells for cell growth controls (growth media replacing antibiotic), ten wells for each treatment (plus and minus inducer, in this example IPTG). Assay plates were usually divided into the two treatments: half the plate containing induced cells and an appropriate concentrations of inducer (in this example IPTG) to maintain the state of induction, the other half containing non-induced cells in the absence of IPTG.
Cells for the assay were prepared as follows. Bacterial cells containing a construct, from which expression of antisense nucleic acid against rplL and rplJ, which encode proliferation-required 50S ribosomal subunit proteins, is inducible in the presence of IPTG, were grown into exponential growth (OD600 0.2 to 0.3) and then diluted 1:100 into fresh media containing either 400 μM or 0 μM inducer (IPTG). These cultures were incubated at 37° C. for 2.5 hr. After a 2.5 hr incubation, induced and non-induced cells were respectively diluted into an assay medium at a final OD600 value of 0.0004. The medium contained an appropriate concentration of the antibiotic for the maintenance of the anti-sense construct. In addition, the medium used to dilute induced cells was supplemented with 800 μM IPTG so that addition to the assay plate would result in a final IPTG concentration of 400 μM. Induced and non-induced cell suspensions were dispensed (25 μl/well) into the appropriate wells of the assay plate as discussed previously. The plate was then loaded into a plate reader, incubated at constant temperature, and cell growth was monitored in each well by the measurement of light scattering at 595 nm. Growth was monitored every 5 minutes until the cell culture attained a stationary growth phase. For each concentration of antibiotic, a percentage inhibition of growth was calculated at the time point corresponding to mid-exponential growth for the associated control wells (no antibiotic, plus or minus IPTG). For each antibiotic and condition (plus or minus IPTG), a plot of percent inhibition versus log of antibiotic concentration was generated and the IC50 determined.

Enterobacter cloacae = assay: Growth inhibition by IPTG-induced antisense RNA expression in Enterobacter cloacae (induced vs. uninduced serial dilution plating); type: cell-based
Procedure: (§1) To study the effects of transcriptional induction in liquid medium, growth curves were carried out by back diluting cultures 1:200 into fresh media with or without 1 mM IPTG and measuring the OD450 every 30 minutes (min). To study the effects of transcriptional induction on solid medium, 10^2, 10^3, 10^4, 10^5, 10^6, 10^7 and 10^8 fold dilutions of overnight cultures were prepared. Aliquots of from 0.5 to 3 μl of these dilutions were spotted on selective agar plates with or without 1 mM IPTG. After overnight incubation, the plates were compared to assess the sensitivity of the clones to IPTG.
(§2) Molecule No. EcXA059, encoding a portion of the ypjA gene of Escherichia coli, was either transformed directly into Enterobacter cloacae, Salmonella typhimurium and/or Klebsiella pneumoniae or subdloned into an expression vector functional in these species and the subclones transformed into these organisms. Suitable expression vectors are well known in the art. These expression vectors were introduced into Enterobacter cloacae, Salmonella typhimurium and/or Klebsiella pneumoniae cells that were then assayed for growth inhibition according to the method of Example 1. After growth in liquid culture, cells were plated at various serial dilutions and a score determined by calculating the log difference in growth for INDUCED vs. UNINDUCED antisense RNA expression as determined by the maximum 10 fold dilution at which a colony was observed. If there was no effect of antisense RNA expression in one organism, the clone is given a score of zero “0” in that organism. In contrast, a score of “8” means that 10^8 times more cells were required to observe a colony formed on the induced state than in the non-induced state under the conditions used and in that organism.
(§3) Expression vectors which inhibited growth of E. coli upon induction of antisense RNA expression with IPTG were transformed directly into Enterobacter cloacae, Klebsiella pneumonia or Salmonella typhimurium. The transformed cells were then assayed for growth inhibition according to the method of Example 1. After growth in liquid culture, cells were plated at various serial dilutions and a score determined by calculating the log difference in growth for INDUCED vs. UNINDUCED antisense RNA expression as determined by the maximum 10 fold dilution at which a colony was observed. If there was no effect of antisense RNA expression in a microorganism, the clone is minus in Table V below. In contrast, a positive in Table V below means that at least 10 fold more cells were required to observe a colony on the induced plate than on the non-induced plate under the conditions used and in that microorganism.

Salmonella typhimurium = assay: Growth inhibition by IPTG-induced antisense RNA expression in Salmonella typhimurium (induced vs. uninduced serial dilution plating); type: cell-based
Procedure: as §1, §2, §3

Klebsiella pneumoniae = assay: Growth inhibition by IPTG-induced antisense RNA expression in Klebsiella pneumoniae (induced vs. uninduced serial dilution plating); type: cell-based
Procedure: as §1, §2, §3

E. coli = assay: Inhibition of E. coli proliferation after IPTG induction of antisense clones (liquid growth curves, dilution spotting on plates); type: cell-based, Escherichia coli; conditions: for effect of antisense expression on E. coli growth after IPTG induction: 1 mM IPTG
Procedure: as §1, §2

CC[C@H](C)[C@H](N)C1=N[C@H](C(=O)N[C@@H](CC(C)C)C(=O)N[C@H](CCC(=O)O)C(=O)N[C@H](C(=O)N[C@H]2CCCCNC(=O)[C@H](CC(N)=O)NC(=O)[C@@H](CC(=O)O)NC(=O)[C@H](Cc3cnc[nH]3)NC(=O)[C@@H](Cc3ccccc3)NC(=O)[C@H]([C@@H](C)CC)NC(=O)[C@@H](CCCN)NC2=O)[C@@H](C)CC)CS1 [Bacitracin] ({Ileψ(thiazoline)Cys}-L[dE]IK[dOrn]I[dF]H[dD]N; lactam 4-C)
IC50 [1]: 4670 µg/mL (≈ 3280 µM)

CO/N=C(\C(=O)N[C@@H]1C(=O)N2C(C(=O)O)=C(COC(C)=O)CS[C@H]12)c1csc(N)n1 [Cefotaxime]
IC50 [1]: 0.0241 µg/mL (≈ 0.0529 µM)

O=C(N[C@H](CO)[C@H](O)c1ccc([N+](=O)[O-])cc1)C(Cl)Cl [Chloramphenicol]
IC50 [1]: 0.00151 µg/mL (≈ 0.00467 µM)

CN(C)c1ccc(O)c2c1C[C@H]1C[C@H]3[C@H](N(C)C)C(O)=C(C(N)=O)C(=O)[C@@]3(O)C(O)=C1C2=O [Minocycline]
IC50 [1]: 0.00389 µg/mL (≈ 0.0085 µM)

CCn1cc(C(=O)O)c(=O)c2ccc(C)nc21 [Nalidixic acid]
IC50 [1]: 6.02 µg/mL (≈ 25.9 µM)

CN[C@@H]1[C@H](O)[C@H](NC)[C@H]2O[C@@]3(O)C(=O)C[C@@H](C)O[C@H]3O[C@@H]2[C@H]1O [Spectinomycin]
IC50 [1]: < 0.15 µg/mL

NC[C@H]1O[C@H](O[C@H]2[C@H](O)[C@@H](O[C@H]3O[C@H](CO)[C@@H](O)[C@H](N)[C@H]3O)[C@H](N)C[C@@H]2N)[C@H](N)C[C@@H]1O [Tobramycin]
IC50 [1]: 0.0705 µg/mL (≈ 0.151 µM)

B1: EcXA069: antisense clone insert, E. coli genes RplD; rplC (nucleic acid, listed as Escherichia coli)
DNA: TGAAATNCGACCGAAGGTAGTTTCGGAAACAGTCAGCGCGCTCTGCGCGTCTTTCAATACTAATTCCATTGCTATCTCCTTACGCCTTCACAGCTGGTTTAACGATCAGGTCGCTACCGGTTGCACCCGGGACAGCACCTTTAACCAGCAGCAGGT
modifications: misc_feature (1)...(156): n = A,T,C or G
notes: antisense clone insert, E. coli genes RplD; rplC
Sensitivity of E. cloacae to antisense nucleic acid (growth inhibition, induced vs. uninduced) (Enterobacter cloacae): + (a positive in Table V below means that at least 10 fold more cells were required to observe a colony on the induced plate than on the non-induced plate) | Sensitivity of S. typhimurium to antisense nucleic acid (growth inhibition, induced vs. uninduced) (Salmonella typhimurium): − | Sensitivity of K. pneumoniae to antisense nucleic acid (growth inhibition, induced vs. uninduced) (Klebsiella pneumoniae): −

B2: EcXA082: antisense clone insert, E. coli genes hybC; hybB (nucleic acid, listed as Escherichia coli)
DNA: TGCTTTGCTCGCCTCATGACGATTATGATCGTTTTGTTTTAAAGGAGGAAGTATCGGCAGTAGACGAATGAGTACGATGTAAGCGCAAATCTCAATAGCCACAAAACCAATAGAAATCAACAGTTCTTCCCAGGTCGGGAAGTA
Sensitivity of S. typhimurium to antisense nucleic acid (growth inhibition, induced vs. uninduced) (Salmonella typhimurium): − | effect of antisense expression on E. coli growth after IPTG induction (E. coli): reduction in cell growth | Sensitivity of K. pneumoniae to antisense nucleic acid (growth inhibition, induced vs. uninduced) (Klebsiella pneumoniae): −

B3: EcXA072: antisense clone insert, E. coli gene recJ (nucleic acid, listed as Escherichia coli)
DNA: GATTTTTACCGGATTAATTTTAAACATGGTCTGATTTCTTTTATTGAGCTAGTCAAAATGCGGTGATAAGAGCGGGATTGTCCCAATCCACGCTCTTTTTTATAGAGAAGATGACGCTAAATTGGCCAGATATTGTCGATGATAATTTG
Sensitivity of E. cloacae to antisense nucleic acid (growth inhibition, induced vs. uninduced) (Enterobacter cloacae): − | effect of antisense expression on E. coli growth after IPTG induction (E. coli): reduction in cell growth

B4: EcXA059: antisense clone insert, portion of the ypjA gene of Escherichia coli (nucleic acid, listed as Escherichia coli)
DNA: NACCANGANTGGGACCCAAATGAAAATTGAACTGAAGATTACAATCAATTTAACANCAAGTTACACAACCAATTCAGACTCCGCCAGCCCACCAATCATGATTGGACGGTGTAAGGACAACACCAACAAAAACAGGAAGTTAGAAGTCTNAGCAAAACACCGACCAGACGGTGAGGAGACATAAAAGGATACGCAAAGGAGCCGCGGCTCCTGGTAACATGAAAGCCCACAGATGTGGGCTTTTTCGTTGATGGTCAGAACGACCAGTTCACACCAGCTACCGCGTTCCACGGGGATTCCACACCGGCACTATGGCTATACCCCACCCCAAGATGCCCGCTTAACGTACTGCTGAATGAGGCTTTAATACCTGCCTGGTATATTCCACGTCTGCCCGACAAATAATTGACGAAATTACCGNCACTATTCACTTTCACCCGGTTATCATCGACAAATTCTTTGCGCACAAGCCGNCTTCAGCCACGGNTCAACTTCCATACCGNTCCCCAGACGCATGTTGTAACTCAACGTTGCGCCCAGTTCACGATATATACTGCGGGTATCGACTGATTTCGATTTCATGCCATTGGATAAATGATATTCGGGGTTATCAGCGGTGAAACCCGTTNACGATGCATACNGGGTCAGGGTTCAATTACCATCGGTAAATCGCATTCCCGGTTTCAATGTGACCGCCAANCCCGTTGCTGTNGGTAACTGGCATTGGCGGGTTCANCGGTGGTAATTTTAACCTGGTACGNTACTTTTAAAACGGGTTAAGCTTTACCGAANACCGTNCANNATTGGAAACCCNCTTTTAATGGTTNCCCAACTNGGNN
modifications: misc_feature (1)...(839): n = A,T,C or G
notes: antisense clone insert, portion of the ypjA gene of Escherichia coli
score: log difference in growth for INDUCED vs. UNINDUCED antisense RNA expression (E. coli; Escherichia coli, IPTG induction, maximum 10 fold dilution at which a colony was observed): 8

B5: EcXA104: antisense clone insert, E. coli gene hsdS (nucleic acid, listed as Escherichia coli)
DNA: GACGCGGCGAACGATTTCGGCTTGTTCTTTTACTGGAGGTAATAAAACAACTTGGGATTTGATATCTTTTCCTGAAATACCTTTTTGACCAGAAGTTGTTTTCACGCAGTTCATCATTGCATTTCGTGCTGAGGGGGATGAAAAAAATATTTCGATATATTCTGGTAAAGCATCTTT
effect of antisense expression on E. coli growth after IPTG induction (E. coli): reduction in cell growth

B6: EcXA062: antisense clone insert, E. coli gene rep (nucleic acid, listed as Escherichia coli)
DNA: CGCGTGGAGAGTCATCAGTTGCACCTGATCCAGCTCTTCTTCACTCTCACCACGCTCNATCATGTCGCGCAAAGTAAAGCGCGTCACCACCTGGGTGAGCGTCATCGGCTCATCCAGTTCACTGCCTTCCAGCATCTCCGTCATCCAGCTAAACAGTTGGTTGACGTTCTTCATGCGCATTTCGGCGGCTTTCGGGCTGGGCGATGTTTCGTACAGCCAGGATTCATAATCCATGCCATGGATCAGATCACGCACCGCGGCAATCGGCTCCCGCTCCGCCAGACGCTGGATTTCTGCCAACCAGTGAGTGAAGCGGGTCAATGCTTCA
modifications: misc_feature (1)...(328): n = A,T,C or G
notes: antisense clone insert, E. coli gene rep
Sensitivity of E. cloacae to antisense nucleic acid (growth inhibition, induced vs. uninduced) (Enterobacter cloacae): − | Sensitivity of S. typhimurium to antisense nucleic acid (growth inhibition, induced vs. uninduced) (Salmonella typhimurium): − | effect of antisense expression on E. coli growth after IPTG induction (E. coli): reduction in cell growth | Sensitivity of K. pneumoniae to antisense nucleic acid (growth inhibition, induced vs. uninduced) (Klebsiella pneumoniae): −
